Reference: US20090031441A1 (NATIONAL UNIVERSITY CORPORATION NAGOYA UNIVERSITY, published 2009)

T1: RGA (Arabidopsis DELLA protein), yeast two-hybrid prey in pGADT7 AD vector (Arabidopsis, UniProt Q9SLH3 1-587)
T1 construct: also called AtDELLA
T1 sequence (looked up): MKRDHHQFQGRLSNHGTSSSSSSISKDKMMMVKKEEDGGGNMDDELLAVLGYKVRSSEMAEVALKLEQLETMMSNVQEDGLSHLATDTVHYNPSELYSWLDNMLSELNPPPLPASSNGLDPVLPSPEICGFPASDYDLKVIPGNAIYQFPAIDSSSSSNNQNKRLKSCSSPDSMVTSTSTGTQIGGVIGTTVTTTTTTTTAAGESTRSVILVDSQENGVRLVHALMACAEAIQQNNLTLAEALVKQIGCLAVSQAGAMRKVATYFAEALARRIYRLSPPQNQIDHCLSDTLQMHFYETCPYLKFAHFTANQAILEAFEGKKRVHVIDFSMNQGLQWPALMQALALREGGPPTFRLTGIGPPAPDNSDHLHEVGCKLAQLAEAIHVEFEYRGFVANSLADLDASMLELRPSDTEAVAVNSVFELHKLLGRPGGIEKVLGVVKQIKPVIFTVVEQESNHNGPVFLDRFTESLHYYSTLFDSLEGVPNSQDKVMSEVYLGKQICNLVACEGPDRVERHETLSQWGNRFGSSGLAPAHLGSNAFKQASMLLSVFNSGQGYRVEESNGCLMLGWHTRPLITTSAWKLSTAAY

T2: RGL2 (Arabidopsis DELLA protein), yeast two-hybrid prey in pGADT7 AD vector (Arabidopsis, UniProt Q8GXW1 1-547)
T2 construct: also called AtDELLA
T2 sequence (looked up): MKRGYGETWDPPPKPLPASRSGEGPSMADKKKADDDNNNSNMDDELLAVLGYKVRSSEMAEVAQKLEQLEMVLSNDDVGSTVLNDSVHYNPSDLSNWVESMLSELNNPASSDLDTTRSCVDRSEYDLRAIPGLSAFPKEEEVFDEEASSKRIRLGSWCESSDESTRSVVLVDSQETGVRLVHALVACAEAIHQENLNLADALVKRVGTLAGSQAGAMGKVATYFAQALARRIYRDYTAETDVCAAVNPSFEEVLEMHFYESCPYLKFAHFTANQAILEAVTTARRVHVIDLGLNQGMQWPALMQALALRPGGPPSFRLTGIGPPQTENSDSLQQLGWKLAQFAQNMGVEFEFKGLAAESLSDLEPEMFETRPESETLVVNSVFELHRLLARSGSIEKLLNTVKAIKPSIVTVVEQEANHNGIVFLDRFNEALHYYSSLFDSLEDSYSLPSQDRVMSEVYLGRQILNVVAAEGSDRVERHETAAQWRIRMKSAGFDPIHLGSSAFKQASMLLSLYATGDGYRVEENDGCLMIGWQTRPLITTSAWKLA


Key:
[1] = target: T1, RGA (Arabidopsis DELLA protein), yeast …; assay: yeast two-hybrid Assay B (beta-galactosidase), GA4 dose response 10^-5 to 10^-9 M
Procedure: Each AtGID1 was used as a bait while AtDELLA was a prey. GA₄ (10⁻⁵ M) was added to the medium. The bars indicates β-galactosidase activity when o-nitrophenol-β-D-galactopyranoside was used as a substrate (Assay B). The growth of each transformant in the defined medium for 2 days (Assay A) is shown beneath of each bar graph. The experiment was carried out in quadruplicate. The SD value shown in the figure was determined from three measurements. Panel B) depicts the dose response in AtGID1-RGA interaction in Assay B of Y2H. GA₄ (10⁻⁵ to 10⁻⁹ M) was added to the medium. The experiment was conducted in duplicates. The SD value shown in the figure was determined from three measurements. Panel C) depicts the results of an evaluation of the in vitro GA-binding potency of AtGID1 using AtDELLA. Left panel, 15 minutes after mixing AtGID1c (C), tritiated GA, with an excess amount of non-labeled GA (+) or without non-labeled GA (−). GAI (G) or RGA (R) was added, and then the GA-binding activity in each reaction mixture was measured according to the standard method. Recombinant protein originating from the vector (v) was used as a negative control. The experiment was carried out in duplicates. The SD value was determined from three measurements. Right panel, a profile of Western blotting for recombinant AtDELLA using an antibody to His tag. G, GAI; R, RGA; v, vector; M, molecular weight marker. […]

[2] = target: T2, RGL2 (Arabidopsis DELLA protein), yeast …; assay: yeast two-hybrid system
Procedure: Arabidopsis has five DELLA proteins (RGA, GAI, RGL1, RGL2, and RGL3; collectively designated AtDELLA; Fleet, C. M., and Sun, T.-P. (2005) Curr. Opin. Plant Biol., 8, 77-85; Dill, A., and Sun, T. (2001) Genetics, 159, 777-785); therefore, there are 15 possible combinations of GID1/DELLA proteins. To verify the positive interactions between AtGID1-AtDELLA, two experiments were conducted using the yeast two hybrid (Y2H) system. In the first experiment (Assay A), a viable colony assay using a defined medium in which only positive clones would survive was carried out. In the second experiment (Assay B), β-galactosidase activity was measured, as reporter gene product of AtGID1-AtDELLA interactions.
BD Matchmaker Two-hybrid System 3 (Clontech, Palo Alto, Calif., USA; now part of Takara Bio) was used in the Y2H experiments. After confirming the PCR products of the AtGID1 genes by sequencing, PCR products were cloned into pGBKT7 DNA-BD shuttle vector to construct bait plasmids. Likewise, the entire coding region of each AtDELLA gene (GAI including EcoRI and XhoI sites; RGA including BamHI and XhoI sites; RGL1 including SmaI and SacI sites; RGL2 including SmaI and ClaI sites; RGL3 including SmaI and XhoI sites on the ends) was cloned into pGADT7 AD vector. The S. cerevisiae AH109 (MATa) strain or Y187 (MATα) strain was used, and DNA-BD and AD vector cassettes were used as negative controls. The details of the method used for the yeast assay are as described in the manufacturer's instructions (Yeast Protocols Handbook #PT3024-1; http://www.clontech.com/). Experiments were carried out four times independently. Similar results were obtained each time.

binding result [1] | binding result [2] | Binder
binds | binds | AtGID1b (At3g63010), yeast two-hybrid bait in pGBKT7 DNA-BD vector (receptor, not shown: small tags and cut ends, Bait fusion for the Y2H assays; also called Arabidopsis GID1) MAGGNEVNLNECKRIVPLNTWVLISNFKLAYKVLRRPDGSFNRDLAEFLDRKVPANSFPLDGVFSFDHVDSTTNLLTRIYQPASLLHQTRHGTLELTKPLSTTEIVPVLIFFHGGSFTHSSANSAIYDTFCRRLVTICGVVVVSVDYRRSPEHRYPCAYDDGWNALNWVKSRVWLQSGKDSNVYVYLAGDSSGGNIAHNVAVRATNEGVKVLGNILLHPMFGGQERTQSEKTLDGKYFVTIQDRDWYWRAYLPEGEDRDHPACNPFGPRGQSLKGVNFPKSLVVVAGLDLVQDWQLAYVDGLKKTGLEVNLLYLKQATIGFYFLPNNDHFHCLMEELNKFVHSIEDSQSKSSPVLLTP
– | binds | AtGID1a (At3g05120), yeast two-hybrid bait in pGBKT7 DNA-BD vector (receptor, not shown: small tags and cut ends, Bait fusion for the Y2H assays (BD Matchmaker Two-hybrid System 3); also called Arabidopsis GID1) MAASDEVNLIESRTVVPLNTWVLISNFKVAYNILRRPDGTFNRHLAEYLDRKVTANANPVDGVFSFDVLIDRRINLLSRVYRPAYADQEQPPSILDLEKPVDGDIVPVILFFHGGSFAHSSANSAIYDTLCRRLVGLCKCVVVSVNYRRAPENPYPCAYDDGWIALNWVNSRSWLKSKKDSKVHIFLAGDSSGGNIAHNVALRAGESGIDVLGNILLNPMFGGNERTESEKSLDGKYFVTVRDRDWYWKAFLPEGEDREHPACNPFSPRGKSLEGVSFPKSLVVVAGLDLIRDWQLAYAEGLKKAGQEVKLMHLEKATVGFYLLPNNNHFHNVMDEISAFVNAEC
